Source: the supplement of paper PMC12042874
± gives the uncertainty stated by the source.

Assay: amyloid nucleation score (Sup35N fusion, yeast selection) (log enrichment); library NNK1; higher = more nucleation; inactive = no reads after selection
How it was run: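 The nucleation score, computed with DiMSum, is the log enrichment of output over input reads, centred on the mode score of non-aggregating sequences. Sequences with under 100 input reads were dropped. Reads were generated by Illumina sequencing of plasmid inserts from psi-negative yeast with Sup35N fused to peptides of 20 random codons, induced with 100 μM copper sulfate for 24 hours and grown 7 days at 30°C on medium lacking adenine and uracil.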

In order of falling amyloid nucleation score:
1. GYPGCHLFVSWTTVGPVFFY  8.239 ± 0.047
2. CYVNLTFPVLVEACTASFTD  6.722 ± 0.055
3. YMIMQLDACFECLTFQGQY  5.9 ± 0.087
4. NQTNFDVSLY  4.64 ± 0.055
5. WDETY  4.62 ± 0.07
6. SYNVMCVGYCIC  3.4 ± 0.12
7. FNYVICYSLCVVFWARRWCN  1.75 ± 0.14
8. CGLLWSCSKLH  1.56 ± 0.42
9. LDLMVVCFKGIRGFEKMIGG  1.5 ± 0.31
10. ESHLRASAGLWLSAGRDCNG  1.38 ± 0.63
11. PEAPPLLIVSGFN  1.2 ± 0.79
12. LLISDAVVYLFWTPENHSTW  1.2 ± 0.56
13. HIQRYMWKGGLEFVLIVRRA  1.2 ± 0.4
14. LSLKASDMRIGRYRSDKATF  1.18 ± 0.79
15. FFTIQMGYMALGMW  1.16 ± 0.23
16. GSQSEVVCGW  1.14 ± 0.74
17. QVALYKVVVYKTWDVGFPSC  0.988 ± 0.9
18. ICMILVPFMPT  0.976 ± 1.1
19. GSYECFHHLYCGWQSLLWAN  0.854 ± 0.39
20. GISSSTLTFRTMWEDRCVEG  0.825 ± 0.66
21. SDELWLLQFPVLNNKLWEK  0.726 ± 1.1
22. KIFDMRVESVYWVGRSPSKV  0.706 ± 0.17
23. YSEYPSLLGRSSGMIDNFKG  0.597 ± 0.28
24. ELYCEVSSKIAGLDLFV  0.57 ± 0.78
25. MRCISYIYEHAL  0.567 ± 0.66
26. SNSSMWAYRVC  0.497 ± 0.74
27. HQVVNNGTWGEQYIWMLSAC  0.442 ± 0.46
28. MTEQVAANAEDWSVVGNWLV  0.43 ± 0.5
29. VWCVFFLVLYFYR  0.422 ± 0.57
30. RVNYDVLVHLMPGLWVRTRL  0.372 ± 1.4
31. LPWRRGWSFSTLVSLTGLSA  0.353 ± 0.31
32. GKFSDSHIVA  0.308 ± 0.46
33. FLIFIRFNGHCLSIGWFTLH  0.303 ± 1
34. CPRVKAHVRKNVFFSLVMSL  0.296 ± 0.44
35. TGCLVTWNIENLLRHQTFAM  0.227 ± 0.38
36. CCLLDWSLDNGYNRQLRKET  0.219 ± 0.32
37. STALLS  0.21 ± 0.74
38. ENLGGWAPTLCYRRT  0.187 ± 0.4
39. VQAKYNSSLGESNRDSDCAS  0.187 ± 0.34
40. IVFRLS  0.185 ± 0.38
41. VSSFWRELVPYGMVCRESSL  0.178 ± 0.56
42. LVSMVWLPM  0.167 ± 0.84
43. IRDRMLMCDGKRLNTLLEHI  0.145 ± 0.49
44. VVLRLRSSYFGGLAGMA  0.121 ± 0.33
45. LRKVGQGI  0.066 ± 0.67
46. CCQYSWSNVMSVRKLSAWLH  0.04 ± 0.34
47. VGFRGVLQIPGLSFPEALVR  0.024 ± 0.46
48. FTLGVFSL  0.017 ± 0.22
49. WLTTGFLFVKLGGHKESSVQ  0.015 ± 0.33
50. DSRGHGEPRRTWEW  -0.006 ± 0.58
51. NDSICIVVLS  -0.009 ± 0.84
52. SEWSRKGVYNACLITG  -0.01 ± 0.48
53. NLYYWYGTVSIWFYNRWFGV  -0.021 ± 0.66
54. TWIFVSLACKAL  -0.045 ± 0.4
55. DAMRGLPFYQYMHHMGNGYW  -0.083 ± 1.4
56. TCFVVLYTKMNVFECFDLQV  -0.109 ± 0.51
57. DRCVQCTALTASTGR  -0.113 ± 0.94
58. TRSVWIEDRVTRAARFKGQR  -0.116 ± 0.47
59. FCLMMEVGSVLRNLVPVSFR  -0.122 ± 1.4
60. AFIFMSTATDDLFFAINL  -0.139 ± 0.35
61. NDYTELEIFCNLLRLMFWVV  -0.162 ± 0.48
62. NHVYCVWMRMFMIYFNL  -0.17 ± 0.54
63. VRVFTHSSVGREE  -0.177 ± 0.25
64. ECRGQLSDKIVQYNRPEVYW  -0.199 ± 0.28
65. FGLHCINLNWVEKWFDIDGP  -0.245 ± 0.84
66. DVFVY  -0.273 ± 0.45
67. LDHTTVWCWCGTGGLYRRCC  -0.29 ± 0.31
68. EGYAWGPYLKLTRSKLRMSF  -0.374 ± 0.81
69. KLRRDSFVFQVKFHLNKGML  -0.384 ± 0.46
70. HNSRWTRFRHLCSYITYGGC  -0.396 ± 0.58
71. AFRRCTKSFIL  -0.427 ± 1.9
72. NVIGISATNASLSLVLISVI  -0.509 ± 0.32
73. TNWVWELL  -0.544 ± 1.9
74. CMSSAALSRLHM  -0.605 ± 1.1
75. PKARYRFSWLTRYNLNNRRE  -0.608 ± 0.52
76. FVECSERRGSKGSLYIDEVS  -0.629 ± 0.73
77. HWSSSS  -0.745 ± 0.66
78. RRGLCGNAKAIIRGLAQGWD  -1 ± 1.2
79. SCHYDQPDQKLLASQSLL  -1.02 ± 0.68
80. KNALWVRTVKNMCVLWDTGF  -1.08 ± 1.4

In the case of SCIYLNGSPVDEDGKYVHDF, the amyloid nucleation score is reported as “inactive”.
With RFRSCSYLVNRSSMLAATDG the amyloid nucleation score was “inactive”.
With FVRVANMVAWYNASRRLR the amyloid nucleation score was “inactive”.
For CLTGGYPNRKLNLTMMWCHW, the amyloid nucleation score was “inactive”.
In the case of VGISMHFRSRENFQSN, the amyloid nucleation score is reported as “inactive”.
